Experimental data as given in patent US20220290113.

B1: Recombinant Nme2Cas9 (Cas9 of Neisseria meningitidis strain Del1444), purified from E. coli (protein)
chain: PKKKRKVNAMAAFKPNPINYILGLDIGIASVGWAMVEIDEEENPIRLIDLGVRVFERAEVPKTGDSLAMARRLARSVRRLTRRRAHRLLRARRLLKREGVLQAADFDENGLIKSLPNTPWQLRAAALDRKLTPLEWSAVLLHLIKHRGYLSQRKNEGETADKELGALLKGVANNAHALQTGDFRTPAELALNKFEKESGHIRNQRGDYSHTFSRKDLQAELILLFEKQKEFGNPHVSGGLKEGIETLLMTQRPALSGDAVQKMLGHCTFEPAEPKAAKNTYTAERFIWLTKLNNLRILEQGSERPLTDTERATLMDEPYRKSKLTYAQARKLLGLEDTAFFKGLRYGKDNAEASTLMEMKAYHAISRALEKEGLKDKKSPLNLSSELQDEIGTAFSLFKTDEDITGRLKDRVQPEILEALLKHISFDKFVQISLKALRRIVPLMEQGKRYDEACAEIYGDHYGKKNTEEKIYLPPIPADEIRNPVVLRALSQARKVINGVVRRYGSPARIHIETAREVGKSFKDRKEIEKRQEENRKDREKAAAKFREYFPNFVGEPKSKDILKLRLYEQQHGKCLYSGKEINLVRLNEKGYVEIDHALPFSRTWDDSFNNKVLVLGSENQNKGNQTPYEYFNGKDNSREWQEFKARVETSRFPRSKKQRILLQKFDEDGFKECNLNDTRYVNRFLCQFVADHILLTGKGKRRVFASNGQITNLLRGFWGLRKVRAENDRHHALDAVVVACSTVAMQQKITRFVRYKEMNAFDGKTIDKETGKVLHQKTHFPQPWEFFAQEVMIRVFGKPDGKPEFEEADTPEKLRTLLAEKLSSRPEAVHEYVTPLFVSRAPNRKMSGAHKDTLRSAKRFVKHNEKISVKRVWLTEIKLADLENMVNYKNGREIELYEALKARLEAYGGNAKQAFDPKDNPFYKKGGQLVKAVRVEKTQESGVLLNKKNAYTIADNGDMVRVDVFCKVDKKGKNQYFIVPIYAWQVAENILPDIDCKGYRIDDSYTFCFSLHKYDLIAFQKDEKSKVEFAYYINCDSSNGRFYLAWHDKGSKEQQFRISTQNLVLIQKYQVNELGKEIRPCRLKKRPPVRGGGGSGGGGSGGGGSPAAKKKKLDGGGSKRPAATKKAGQAKKKK
B2: Nme1Cas9-Nme2Cas9PID chimera (Nme1Cas9 with its PID replaced by that of Nme2Cas9) (protein)
chain: MAAFKPNSINYILGLDIGIASVGWAMVEIDEEENPIRLIDLGVRVFERAEVPKTGDSLAMARRLARSVRRLTRRRAHRLLRTRRLLKREGVLQAANFDENGLIKSLPNTPWQLRAAALDRKLTPLEWSAVLLHLIKHRGYLSQRKNEGETADKELGALLKGVAGNAHALQTGDFRTPAELALNKFEKESGHIRNQRSDYSHTFSRKDLQAELILLFEKQKEFGNPHVSGGLKEGIETLLMTQRPALSGDAVQKMLGHCTFEPAEPKAAKNTYTAERFIWLTKLNNLRILEQGSERPLTDTERATLMDEPYRKSKLTYAQARKLLGLEDTAFFKGLRYGKDNAEASTLMEMKAYHAISRALEKEGLKDKKSPLNLSPELQDEIGTAFSLFKTDEDITGRLKDRIQPEILEALLKHISFDKFVQISLKALRRIVPLMEQGKRYDEACAEIYGDHYGKKNTEEKIYLPPIPADEIRNPVVLRALSQARKVINGVVRRYGSPARIHIETAREVGKSFKDRKEIEKRQEENRKDREKAAAKFREYFPNFVGEPKSKDILKLRLYEQQHGKCLYSGKEINLGRLNEKGYVEIDHALPFSRTWDDSFNNKVLVLGSENQNKGNQTPYEYFNGKDNSREWQEFKARVETSRFPRSKKQRILLQKFDEDGFKERNLNDTRYVNRFLCQFVADRMRLTGKGKKRVFASNGQITNLLRGFWGLRKVRAENDRHHALDAVVVACSTVAMQQKITRFVRYKEMNAFDGKTIDKETGEVLHQKTHFPQPWEFFAQEVMIRVFGKPDGKPEFEEADTLEKLRTLLAEKLSSRPEAVHEYVTPLFVSRAPNRKMSGAHKDTLRSAKRFVKHNEKISVKRVWLTEIKLADLENMVNYKNGREIELYEALKARLEAYGGNAKQAFDPKDNPFYKKGGQLVKAVRVEKTQESGVLLNKKNAYTIADNGDMVRVDVFCKVDKKGKNQYFIVPIYAWQVAENILPDIDCKGYRIDDSYTFCFSLHKYDLIAFQKDEKSKVEFAYYINCDSSNGRFYLAWHDKGSKEQQFRISTQNLVLIQKYQVNELGKEIRPCRLKKRPPVR
B3: Nme1Cas9 (Cas9 of Neisseria meningitidis strain 8013), recombinant, purified from E. coli (protein)
chain: MAAFKPNSINYILGLDIGIASVGWAMVEIDEEENPIRLIDLGVRVFERAEVPKTGDSLAMARRLARSVRRLTRRRAHRLLRTRRLLKREGVLQAANFDENGLIKSLPNTPWQLRAAALDRKLTPLEWSAVLLHLIKHRGYLSQRKNEGETADKELGALLKGVAGNAHALQTGDFRTPAELALNKFEKESGHIRNQRSDYSHTFSRKDLQAELILLFEKQKEFGNPHVSGGLKEGIETLLMTQRPALSGDAVQKMLGHCTFEPAEPKAAKNTYTAERFIWLTKLNNLRILEQGSERPLTDTERATLMDEPYRKSKLTYAQARKLLGLEDTAFFKGLRYGKDNAEASTLMEMKAYHAISRALEKEGLKDKKSPLNLSPELQDEIGTAFSLFKTDEDITGRLKDRIQPEILEALLKHISFDKFVQISLKALRRIVPLMEQGKRYDEACAEIYGDHYGKKNTEEKIYLPPIPADEIRNPVVLRALSQARKVINGVVRRYGSPARIHIETAREVGKSFKDRKEIEKRQEENRKDREKAAAKFREYFPNFVGEPKSKDILKLRLYEQQHGKCLYSGKEINLGRLNEKGYVEIDHALPFSRTWDDSFNNKVLVLGSENQNKGNQTPYEYFNGKDNSREWQEFKARVETSRFPRSKKQRILLQKFDEDGFKERNLNDTRYVNRFLCQFVADRMRLTGKGKKRVFASNGQITNLLRGFWGLRKVRAENDRHHALDAVVVACSTVAMQQKITRFVRYKEMNAFDGKTIDKETGEVLHQKTHFPQPWEFFAQEVMIRVFGKPDGKPEFEEADTLEKLRTLLAEKLSSRPEAVHEYVTPLFVSRAPNRKMSGQGHMETVKSAKRLDEGVSVLRVPLTQLKLKDLEKMVNREREPKLYEALKARLEAHKDDPAKAFAEPFYKYDKAGNRTQQVKAVRVEQVQKTGVWVRNHNGIADNATMVRVDVFEKGDKYYLVPIYSWQVAKGILPDRAVVQGKDEEDWQLIDDSFNFKFSLHPNDLVEVITKKARMFGYFASCHRGTGNINIRIHDLDHKIGKNGILEGIGVKTALSFQKYQIDELGKEIRPCRLKKRPPVR

Assays:
[1] = target: AcrIIC1Nme
[2] = target: AcrIIC3Nme
[3] = target: AcrIIC2Nme
[4] = target: AcrIIC5Smu
[5] = target: AcrIIC4Hpa
[6] = target: AcrE2

Row | Protein | in vitro DNA cleavage by Cas9 in the presence of Acr (10:1 Acr:Cas9 molar ratio) [1] | in vitro DNA cleavage by Cas9 in the presence of Acr (10:1 Acr:Cas9 molar ratio) [2] | in vitro DNA cleavage by Cas9 in the presence of Acr (10:1 Acr:Cas9 molar ratio) [3] | in vitro DNA cleavage by Cas9 in the presence of Acr (10:1 Acr:Cas9 molar ratio) [4] | in vitro DNA cleavage by Cas9 in the presence of Acr (10:1 Acr:Cas9 molar ratio) [5] | in vitro DNA cleavage by the Nme1Cas9-Nme2Cas9PID chimera in the presence of Acr (10 uM Cas9-sgRNA + 100 uM Acr) [4] | in vitro DNA cleavage by Cas9 in the presence of Acr (10:1 Acr:Cas9 molar ratio) [6]
1 | B1 | completely inhibited Nme2Cas9 | completely inhibited Nme2Cas9 | completely inhibited Nme2Cas9 | did not inhibit Nme2Cas9 in vitro even at a 10-fold molar excess | completely inhibited Nme2Cas9 |  | 
2 | B2 |  |  |  |  |  | No inhibition was observed by AcrIIC5Smu on this protein chimera | 
3 | B3 | all 5 families inhibited Nme1Cas9 | all 5 families inhibited Nme1Cas9 | all 5 families inhibited Nme1Cas9 | all 5 families inhibited Nme1Cas9 | all 5 families inhibited Nme1Cas9 |  | AcrE2 failed to do so
